In patent CN106366186A (ATTOGEN BIOMEDICAL (SUZHOU) INC, dated 2017):

Legend:
His-HPV16 E7重组蛋白 (HPV16) [1] = molecular target: His-HPV16 E7重组蛋白 (HPV16) (UniProt P03129); experiment: indirect ELISA, antibody 0.1μg/ml on 0.1μg/ml coat; threshold for a positive clone
His-HPV16 E7重组蛋白 (HPV16) [2] = molecular target: His-HPV16 E7重组蛋白 (HPV16) (UniProt P03129); experiment: ELISA, scFv 5μg/ml on 0.1μg/ml coated antigen, anti-Flag-HRP; selection threshold
His-Vac = molecular target: T1, His-Vac (HPV16); experiment: indirect ELISA on peptides
T1 peptide: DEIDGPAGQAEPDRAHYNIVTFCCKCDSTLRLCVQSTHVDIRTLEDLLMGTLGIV

[3] = molecular target: T2, 细胞内源的HPV18 E7蛋白 (HeLa, Siha cells) (HPV18, UniProt P06788 1-105); experiment: immunocytochemistry, HeLa and Siha cells
T2 construct: whole, on cells; Intracellular protein detected by immunocytochemistry in fixed, permeabilised cells
T2 sequence: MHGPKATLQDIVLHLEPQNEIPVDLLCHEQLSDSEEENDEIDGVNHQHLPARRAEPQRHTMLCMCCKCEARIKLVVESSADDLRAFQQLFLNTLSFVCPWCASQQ

His-HPV18 E7重组蛋白 = molecular target: T3, His-HPV18 E7重组蛋白 (HPV18, UniProt P06788 1-105); experiment: indirect ELISA, 0.5μg/ml coat, antibody 1μg/ml
T3 construct: also called His-HPV18 E7融合蛋白; not shown: His tag
T3 chain: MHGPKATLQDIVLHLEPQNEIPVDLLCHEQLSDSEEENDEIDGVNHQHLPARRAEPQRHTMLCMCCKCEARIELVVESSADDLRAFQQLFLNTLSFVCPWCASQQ

[4] = molecular target: T4, 细胞内源的HPV16 E7蛋白 (CaSki, Siha cells, HPV16-positive cervical cells) (HPV16, UniProt P03129 1-98); experiment: immunocytochemistry, CaSki cells
T4 construct: whole, on cells; Intracellular protein detected by immunocytochemistry in fixed, permeabilised cells; also called HPV16 E7内源蛋白
T4 sequence: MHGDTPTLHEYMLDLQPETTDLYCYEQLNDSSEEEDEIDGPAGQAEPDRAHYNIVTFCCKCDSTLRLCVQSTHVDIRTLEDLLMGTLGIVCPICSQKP

B1: HPV16 E7兔单克隆抗体RAB-034 (antibody, from another filing, V domains shown)
VH: QSLEESGGRLVTPGTPLTLTCTVSGIDLSSYAMGWVRQAPGEGLDWIGSIGSSGRTYYANWAKGRFTISKTSSTTVDLKMTSLTTEDTATYFCARGVVNRSDIWGPGTLVTVSS
VL: DPMLTQTASSVSAAVGGTVTISCQSSQSVYDNNWLGWYQQKPGQPPKLLIYGASNLESGVPSRFKGSGSGTQFTLTISDVQCDDAATYYCAGGYSGNRYVFGGGTEVVVK
His-HPV16 E7重组蛋白 (HPV16) [1]
  OD值: > 1 OD

B2: HPV16 E7单链抗体scFv001 (scFv, V domains shown)
VH: QSLEESGGRLVTPGTPLTLTCTASGSDISSYAISWVRQAPGKGLEWIGSISNSGNTYYASWAKGRFTIAKTSTTVTLKMTSLTTADTATYFCTRGAISGTPIWGPGTLVTVSS
VL: DPMLTQTASSVSAAVGGTVTISCQSSQSVYDNNWLGWYQQKPGQPPKLLIYSVSTLASGVPSRFKGSGSGTQFTLTISDLECDDAATYYCAGGFSGNIYTFGGGTNVEIK
His-HPV16 E7重组蛋白 (HPV16) [2]
  OD值: > 2 OD

B3: HPV16 E7兔单克隆抗体RAB-001 (antibody, V domains shown)
VH: QSLEESGGRLVTPGTPLTLTCTASGSDISSYAISWVRQAPGKGLEWIGSISNSGNTYYASWAKGRFTIAKTSTTVTLKMTSLTTADTATYFCTRGAISGTPIWGPGTLVTVSS
VL: DPMLTQTASSVSAAVGGTVTISCQSSQSVYDNNWLGWYQQKPGQPPKLLIYSVSTLASGVPSRFKGSGSGTQFTLTISDLECDDAATYYCAGGFSGNIYTFGGGTNVEIK
notes: also called RAB-01; anti-HPV16 E7单抗RAB-001
His-HPV16 E7重组蛋白 (HPV16) [1]
  OD值: > 1 OD
His-Vac
  binding result: no binding (tested: antibody 1μg/ml, peptide coat 2μg/ml)
[3]
  binding result: binds
His-HPV18 E7重组蛋白
  binding result: binds
[4]
  binding result: binds
